Data reported in patent US20230250154A1 (CYTONICS, published 2023).

T1: ADAMTS4 (human, UniProt O75173 213-685, limits assumed)
T1 sequence (looked up): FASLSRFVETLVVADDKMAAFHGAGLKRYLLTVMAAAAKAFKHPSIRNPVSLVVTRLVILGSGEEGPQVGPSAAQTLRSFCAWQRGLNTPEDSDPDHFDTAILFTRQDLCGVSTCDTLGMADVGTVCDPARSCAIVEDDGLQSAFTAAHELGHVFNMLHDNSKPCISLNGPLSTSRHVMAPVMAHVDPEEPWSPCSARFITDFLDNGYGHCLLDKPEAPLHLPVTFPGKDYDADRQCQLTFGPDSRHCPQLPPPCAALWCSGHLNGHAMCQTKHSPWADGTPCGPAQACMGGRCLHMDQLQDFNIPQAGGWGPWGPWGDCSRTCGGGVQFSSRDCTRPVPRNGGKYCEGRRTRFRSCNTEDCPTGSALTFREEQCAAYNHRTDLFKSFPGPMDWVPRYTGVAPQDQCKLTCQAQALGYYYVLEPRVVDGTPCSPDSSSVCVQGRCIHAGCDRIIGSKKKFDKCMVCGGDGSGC

T2: ADAMTS5 (human, UniProt Q9UNA0 262-622, limits assumed)
T2 sequence (looked up): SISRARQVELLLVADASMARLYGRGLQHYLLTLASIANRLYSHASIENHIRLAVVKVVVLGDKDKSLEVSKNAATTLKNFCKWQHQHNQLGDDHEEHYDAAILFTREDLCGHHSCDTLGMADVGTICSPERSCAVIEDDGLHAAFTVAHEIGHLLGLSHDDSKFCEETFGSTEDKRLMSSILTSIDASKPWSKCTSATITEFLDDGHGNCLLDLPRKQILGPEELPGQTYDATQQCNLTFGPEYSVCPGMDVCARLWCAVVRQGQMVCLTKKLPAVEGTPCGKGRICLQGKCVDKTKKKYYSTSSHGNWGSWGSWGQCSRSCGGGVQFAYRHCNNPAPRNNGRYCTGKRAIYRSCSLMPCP

T3: MMP1 (human, UniProt P03956 100-469, limits assumed)
T3 sequence (looked up): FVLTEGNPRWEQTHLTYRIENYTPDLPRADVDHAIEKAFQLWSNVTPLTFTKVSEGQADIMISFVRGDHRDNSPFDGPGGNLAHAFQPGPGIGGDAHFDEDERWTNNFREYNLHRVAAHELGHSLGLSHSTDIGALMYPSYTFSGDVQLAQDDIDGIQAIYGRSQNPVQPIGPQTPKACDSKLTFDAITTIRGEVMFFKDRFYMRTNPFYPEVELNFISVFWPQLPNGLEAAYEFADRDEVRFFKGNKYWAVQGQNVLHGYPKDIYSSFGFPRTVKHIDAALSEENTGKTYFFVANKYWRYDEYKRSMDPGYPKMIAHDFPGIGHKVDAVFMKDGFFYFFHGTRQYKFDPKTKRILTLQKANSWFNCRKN

T4: MMP2 (human, UniProt P08253 110-660, limits assumed)
T4 sequence (looked up): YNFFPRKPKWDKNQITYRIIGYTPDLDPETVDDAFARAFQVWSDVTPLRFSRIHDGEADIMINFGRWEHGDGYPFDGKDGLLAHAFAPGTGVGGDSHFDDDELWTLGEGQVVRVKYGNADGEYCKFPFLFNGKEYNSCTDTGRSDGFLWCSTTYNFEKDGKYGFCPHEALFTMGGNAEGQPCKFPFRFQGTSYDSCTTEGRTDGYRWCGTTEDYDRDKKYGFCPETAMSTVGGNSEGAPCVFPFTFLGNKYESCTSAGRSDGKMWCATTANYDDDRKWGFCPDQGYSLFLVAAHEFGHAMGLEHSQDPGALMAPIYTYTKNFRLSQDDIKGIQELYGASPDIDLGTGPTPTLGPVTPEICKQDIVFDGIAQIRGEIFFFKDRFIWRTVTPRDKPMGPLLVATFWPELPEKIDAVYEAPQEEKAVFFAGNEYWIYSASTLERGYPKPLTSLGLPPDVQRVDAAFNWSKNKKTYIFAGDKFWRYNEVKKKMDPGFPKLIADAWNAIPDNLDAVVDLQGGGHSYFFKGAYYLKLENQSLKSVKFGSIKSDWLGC

T5: Cathepsin G (UniProt P08311 21-244)
T5 sequence (looked up): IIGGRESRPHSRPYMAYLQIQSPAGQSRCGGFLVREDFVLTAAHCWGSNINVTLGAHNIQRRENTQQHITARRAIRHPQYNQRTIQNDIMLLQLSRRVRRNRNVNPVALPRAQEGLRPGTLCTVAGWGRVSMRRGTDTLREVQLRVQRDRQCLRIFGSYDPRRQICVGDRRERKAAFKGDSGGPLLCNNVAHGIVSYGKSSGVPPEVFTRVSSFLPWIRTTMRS

T6: MMP7 (UniProt P09237 95-267, limits assumed)
T6 sequence (looked up): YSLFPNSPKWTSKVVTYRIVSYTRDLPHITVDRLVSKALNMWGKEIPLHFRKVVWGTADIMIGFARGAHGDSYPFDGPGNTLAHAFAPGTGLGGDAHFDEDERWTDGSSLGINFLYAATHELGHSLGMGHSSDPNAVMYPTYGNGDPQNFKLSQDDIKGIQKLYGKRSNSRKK

B1: Variant A2M, bait region SEQ ID NO 22 (other)
chain: SVSGKPQYMVLVPSLLHTETTEKGCVLLSYLNETVTVSASLESVRGNRSLFTDLEAENDVLHCVAFAVPKSSSNEEVMFLTVQVKGPTQEFKKRTTVMVKNEDSLVFVQTDKSIYKPGQTVKFRVVSMDENFHPLNELIPLVYIQDPKGNRIAQWQSFQLEGGLKQFSFPLSSEPFQGSYKVVVQKKSGGRTEHPFTVEEFVLPKFEVQVTVPKIITILEEEMNVSVCGLYTYGKPVPGHVTVSICRKYSDASDCHGEDSQAFCEKFSGQLNSHGCFYQQVKTKVFQLKRKEYEMKLHTEAQIQEEGTVVELTGRQSSEITRTITKLSFVKVDSHFRQGIPFFGQVRLVDGKGVPIPNKVIFIRGNEANYYSNATTDEHGLVQFSINTTNVMGTSLTVRVNYKDRSPCYGYQWVSEEHEEAHHTAYLVFSPSKSFVHLEPMSHELPCGHTQTVQAHYILNGGTLLGLKKLSFYYLIMAKGGIVRTGTHGLLVKQEDMKGHFSISIPVKSDIAPVARLLIYAVLPTGDVIGDSAKYDVENCLANKVDLSFSPSQSLPASHAHLRVTAAPQSVCALRAVDQSVLLMKPDAELSASSVYNLLPEKDLTGFPGPLNDQDDEDCINRHNVYINGITYTPVSSTNEKDMYSFLEDMGLKAFTNSKIRKPKMCPQLEHGPEGEGEGEFRGVTIPENFFGVPRYLTASEDLVVQISELEGRGSPHTKLRKYFPETWIWDLVVVNSAGVAEVGVTVPDTITEWKAGAFCLSEDAGLGISSTASLRAFQPFFVELTMPYSVIRGEAFTLKATVLNYLPKCIRVSVQLEASPAFLAVPVEKEQAPHCICANGRQTVSWAVTPKSLGNVNFTVSAEALESQELCGTEVPSVPEHGRKDTVIKPLLVEPEGLEKETTFNSLLCPSGGEVSEELSLKLPPNVVEESARASVSVLGDILGSAMQNTQNLLQMPYGCGEQNMVLFAPNIYVLDYLNETQQLTPEIKSKAIGYLNTGYQRQLNYKHYDGSYSTFGERYGRNQGNTWLTAFVLKTFAQARAYIFIDEAHITQALIWLSQRQKDNGCFRSSGSLLNNAIKGGVEDEVTLSAYITIALLEIPLTVTHPVVRNALFCLESAWKTAQEGDHGSHVYTKALLAYAFALAGNQDKRKEVLKSLNEEAVKKDNSVHWERPQKPKAPVGHFYEPQAPSAEVEMTSYVLLAYLTAQPAPTSEDLTSATNIVKWITKQQNAQGGFSSTQDTVVALHALSKYGAATFTRTGKAAQVTIQSSGTFSSKFQVDNNNRLLLQQVSLPELPGEYSMKVTGEGCVYLQTSLKYNILPEKEEFPFALGVQTLPQTCDEPKAHTSFQISLSVSYTGSRSASNMAIVDVKMVSGFIPLKPTVKMLERSNHVSRTEVSSNHVLIYLDKVSNQTLSLFFTVLQDVPVRDLKPAIVKVYDYYETDEFAIAEYNAPCSKDLGNADYKDDDDKGASHHHHHH
B2: Variant A2M, bait region SEQ ID NO 23 (other)
chain: SVSGKPQYMVLVPSLLHTETTEKGCVLLSYLNETVTVSASLESVRGNRSLFTDLEAENDVLHCVAFAVPKSSSNEEVMFLTVQVKGPTQEFKKRTTVMVKNEDSLVFVQTDKSIYKPGQTVKFRVVSMDENFHPLNELIPLVYIQDPKGNRIAQWQSFQLEGGLKQFSFPLSSEPFQGSYKVVVQKKSGGRTEHPFTVEEFVLPKFEVQVTVPKIITILEEEMNVSVCGLYTYGKPVPGHVTVSICRKYSDASDCHGEDSQAFCEKFSGQLNSHGCFYQQVKTKVFQLKRKEYEMKLHTEAQIQEEGTVVELTGRQSSEITRTITKLSFVKVDSHFRQGIPFFGQVRLVDGKGVPIPNKVIFIRGNEANYYSNATTDEHGLVQFSINTTNVMGTSLTVRVNYKDRSPCYGYQWVSEEHEEAHHTAYLVFSPSKSFVHLEPMSHELPCGHTQTVQAHYILNGGTLLGLKKLSFYYLIMAKGGIVRTGTHGLLVKQEDMKGHFSISIPVKSDIAPVARLLIYAVLPTGDVIGDSAKYDVENCLANKVDLSFSPSQSLPASHAHLRVTAAPQSVCALRAVDQSVLLMKPDAELSASSVYNLLPEKDLTGFPGPLNDQDDEDCINRHNVYINGITYTPVSSTNEKDMYSFLEDMGLKAFTNSKIRKPKMCPQLEHGPIPENFYGVEGEGLGIGSEDLVVQISELEGRGSVEEPHTKLRKYFPETWIWDLVVVNSAGVAEVGVTVPDTITEWKAGAFCLSEDAGLGISSTASLRAFQPFFVELTMPYSVIRGEAFTLKATVLNYLPKCIRVSVQLEASPAFLAVPVEKEQAPHCICANGRQTVSWAVTPKSLGNVNFTVSAEALESQELCGTEVPSVPEHGRKDTVIKPLLVEPEGLEKETTFNSLLCPSGGEVSEELSLKLPPNVVEESARASVSVLGDILGSAMQNTQNLLQMPYGCGEQNMVLFAPNIYVLDYLNETQQLTPEIKSKAIGYLNTGYQRQLNYKHYDGSYSTFGERYGRNQGNTWLTAFVLKTFAQARAYIFIDEAHITQALIWLSQRQKDNGCFRSSGSLLNNAIKGGVEDEVTLSAYITIALLEIPLTVTHPVVRNALFCLESAWKTAQEGDHGSHVYTKALLAYAFALAGNQDKRKEVLKSLNEEAVKKDNSVHWERPQKPKAPVGHFYEPQAPSAEVEMTSYVLLAYLTAQPAPTSEDLTSATNIVKWITKQQNAQGGFSSTQDTVVALHALSKYGAATFTRTGKAAQVTIQSSGTFSSKFQVDNNNRLLLQQVSLPELPGEYSMKVTGEGCVYLQTSLKYNILPEKEEFPFALGVQTLPQTCDEPKAHTSFQISLSVSYTGSRSASNMAIVDVKMVSGFIPLKPTVKMLERSNHVSRTEVSSNHVLIYLDKVSNQTLSLFFTVLQDVPVRDLKPAIVKVYDYYETDEFAIAEYNAPCSKDLGNADYKDDDDKGASHHHHHH

Columns and labels:
Experiment in all cases: cell-based or functional assay
ADAMTS4 = target: T1, ADAMTS4
ADAMTS5 = target: T2, ADAMTS5
MMP1 = target: T3, MMP1
MMP8 = MMP8 (human, UniProt P22894 101-467, limits assumed)
Sequence of MMP8 (P22894 101-467 limits assumed): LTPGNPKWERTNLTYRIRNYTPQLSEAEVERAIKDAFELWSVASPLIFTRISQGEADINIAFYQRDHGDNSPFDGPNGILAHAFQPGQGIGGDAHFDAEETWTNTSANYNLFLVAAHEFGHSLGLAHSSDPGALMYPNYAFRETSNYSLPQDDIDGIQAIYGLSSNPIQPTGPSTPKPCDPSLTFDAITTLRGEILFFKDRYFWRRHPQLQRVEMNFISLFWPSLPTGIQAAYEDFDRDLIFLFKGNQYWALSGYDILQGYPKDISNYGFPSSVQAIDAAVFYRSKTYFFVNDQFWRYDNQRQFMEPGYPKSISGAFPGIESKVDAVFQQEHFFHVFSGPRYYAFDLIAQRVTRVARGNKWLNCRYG

MMP13 = MMP13 (human, UniProt P45452 104-471, limits assumed)
MMP2 = target: T4, MMP2
MMP9 = MMP9 (human, UniProt P14780 107-707, limits assumed)
Sequence of MMP9 (P14780 107-707 limits assumed): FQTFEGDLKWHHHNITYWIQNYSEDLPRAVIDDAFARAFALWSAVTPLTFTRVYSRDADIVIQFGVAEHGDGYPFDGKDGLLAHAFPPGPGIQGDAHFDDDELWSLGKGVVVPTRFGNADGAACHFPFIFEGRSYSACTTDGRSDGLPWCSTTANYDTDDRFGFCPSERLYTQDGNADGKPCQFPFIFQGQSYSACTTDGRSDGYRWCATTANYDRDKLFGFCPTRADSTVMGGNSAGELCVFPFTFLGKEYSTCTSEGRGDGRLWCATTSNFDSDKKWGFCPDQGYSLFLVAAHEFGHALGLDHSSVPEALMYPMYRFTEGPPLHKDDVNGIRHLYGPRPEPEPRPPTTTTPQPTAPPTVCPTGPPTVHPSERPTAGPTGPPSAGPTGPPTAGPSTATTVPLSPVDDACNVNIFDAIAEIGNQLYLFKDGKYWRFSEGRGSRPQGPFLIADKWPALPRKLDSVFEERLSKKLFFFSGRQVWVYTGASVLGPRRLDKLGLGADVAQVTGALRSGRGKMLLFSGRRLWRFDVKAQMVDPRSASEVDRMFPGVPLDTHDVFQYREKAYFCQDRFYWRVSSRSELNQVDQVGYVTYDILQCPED

MMP3 = MMP3 (human, UniProt P08254 100-477, limits assumed)
Sequence of MMP3 (P08254 100-477 limits assumed): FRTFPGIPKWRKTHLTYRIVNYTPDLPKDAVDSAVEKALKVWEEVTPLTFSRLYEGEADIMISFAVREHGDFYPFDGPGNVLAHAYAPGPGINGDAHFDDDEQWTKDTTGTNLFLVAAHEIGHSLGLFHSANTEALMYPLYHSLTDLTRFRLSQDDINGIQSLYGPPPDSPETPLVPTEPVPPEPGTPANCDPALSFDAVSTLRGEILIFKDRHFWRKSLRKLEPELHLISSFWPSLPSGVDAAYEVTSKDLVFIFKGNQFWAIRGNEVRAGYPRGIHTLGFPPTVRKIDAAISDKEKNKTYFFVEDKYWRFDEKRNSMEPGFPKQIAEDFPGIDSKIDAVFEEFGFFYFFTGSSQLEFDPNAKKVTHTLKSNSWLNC

Elastase = target: Elastase
Cathepsin G = target: T5, Cathepsin G
MMP7 = target: T6, MMP7

| Binder | Protease Inhibition (% of WT) (ADAMTS4) | Protease Inhibition (% of WT) (ADAMTS5) | Protease Inhibition (% of WT) (MMP1) | Protease Inhibition (% of WT) (MMP8) | Protease Inhibition (% of WT) (MMP13) | Protease Inhibition (% of WT) (MMP2) | Protease Inhibition (% of WT) (MMP9) | Protease Inhibition (% of WT) (MMP3) | Protease Inhibition (% of WT) (Elastase) | Protease Inhibition (% of WT) (Cathepsin G) | Protease Inhibition (% of WT) (MMP7) |
| --- | --- | --- | --- | --- | --- | --- | --- | --- | --- | --- | --- |
| B1 | 104 % of WT | 316 % of WT | 68 % of WT | 54 % of WT | 93 % of WT | 42 % of WT | 30 % of WT | 265 % of WT | 92 % of WT | 78 % of WT | 75 % of WT |
| B2 | 176 % of WT | 200 % of WT | 133 % of WT | 132 % of WT | 133 % of WT | 80 % of WT | 71 % of WT | 111 % of WT | 147 % of WT | 145 % of WT | 191 % of WT |
